Measured values taken from article doi:10.1101/2025.05.05.652248.
Like-named read-outs stand apart in the source and are kept apart here.

Legend:
[1] = molecular target: MA2561 (AmzR, Archaeal Metabolite-sensing Zipper-like Regulator) of Methanosarcina acetivorans (Methanosarcina acetivorans); assay: non-reducing SDS-PAGE
[2] = molecular target: MA2561 (AmzR, Archaeal Metabolite-sensing Zipper-like Regulator) of Methanosarcina acetivorans (Methanosarcina acetivorans); assay: non-reducing SDS-PAGE; remark: listed apart in the source

In the case of “MA2561 (AmzR, Archaeal Metabolite-sensing Zipper-like Regulator) of Methanosarcina acetivorans (natural protein)”, the stoichiometry N [1] is reported as 2 and the stoichiometry N [2] is reported as 4.
